Test results as given in US12295987B2, “Method of using a GIP/GLP1 co-agonist for diabetes” (Eli Lilly and Company, priority 2018, dated 2025).

biological target: T1, human gastric inhibitory peptide receptor (hGIPR) (Homo sapiens, UniProt P48546); assay: cAMP pharmacological functional assay in presence of 0.1% casein, hGIPR; type: cell-based; details: ratio of hGIPR to hGLP1R cAMP EC50 ratios
T1 construct: expressed in transfected cells; host or cells: HEK293
T1 sequence (P48546 22-466): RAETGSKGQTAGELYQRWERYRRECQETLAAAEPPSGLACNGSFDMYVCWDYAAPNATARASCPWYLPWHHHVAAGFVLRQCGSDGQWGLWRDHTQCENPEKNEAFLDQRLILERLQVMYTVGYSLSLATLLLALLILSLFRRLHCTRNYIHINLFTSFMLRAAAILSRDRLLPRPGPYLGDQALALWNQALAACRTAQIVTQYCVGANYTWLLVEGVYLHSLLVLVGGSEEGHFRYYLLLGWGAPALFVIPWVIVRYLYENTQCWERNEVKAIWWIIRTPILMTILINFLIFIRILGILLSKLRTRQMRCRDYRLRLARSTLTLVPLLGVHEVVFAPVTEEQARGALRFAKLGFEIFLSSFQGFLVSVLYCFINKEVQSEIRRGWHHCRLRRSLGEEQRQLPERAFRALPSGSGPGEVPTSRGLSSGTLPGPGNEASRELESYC

Substance	[hGIPR/hGLP1R] EC50 Ratio
Y-Aib-EGT-αMeF-TSDYSI-αMeL-LDKK((2-[2-(2-Amino-ethoxy)-ethoxy]-acetyl)2-(γGlu)-CO—(CH2)18—CO2H)AQ-Aib-EFI-(D-Glu)-YLIEGGPSSG-NH2 (YXEGTXTSDYSIXLDKKAQXEFIXYLIEGGPSSG; Aib, αMe, D-Glu, C20 diacid lipidation, C-amide; (2)..(2) Xaa at position 2 is Aib; (6)..(6) Xaa at position 6 is alpha-methyl-Phe; (13)..(13) Xaa at position 13 is alpha-methyl-Leu; MOD_RES (17)..(17) Lys at position 17 is chemically modified by conjugation of the epsilon-amino group of the Lys side chain with (2-[2-(2-amino-ethoxy)-ethoxy]-acetyl)2-(gamma-Glu)-CO-(CH2)18- CO2H; (20)..(20) Xaa at position 20 is Aib; (24)..(24) Xaa at position 2) [Peptide 228]	3.51
Y-Aib-EGT-αMeF-TSDYSI-αMeL-LDKK((2-[2-(2-Amino-ethoxy)-ethoxy]-acetyl)2-(γGlu)-CO—(CH2)18—CO2H)AQ-Aib-EFIEYLIEGGPSSG-NH2 (YXEGTXTSDYSIXLDKKAQXEFIEYLIEGGPSSG; Aib, αMe residues, C20 diacid lipidation, C-amide; (2)..(2) Xaa at position 2 is Aib; (6)..(6) Xaa at position 6 is alpha-methyl-Phe; (13)..(13) Xaa at position 13 is alpha-methyl-Leu; MOD_RES (17)..(17) Lys at position 17 is chemically modified by conjugation of the epsilon-amino group of the Lys side chain with (2-[2-(2-amino-ethoxy)-ethoxy]-acetyl)2-(gamma-Glu)-CO-(CH2)18- CO2H; (20)..(20) Xaa at position 20 is Aib; MOD_RES (34)..(34) Gly at po) [Peptide 123]	2.56
Y-Aib-EGT-αMeF-TSDYSI-αMeL-LDKK((2-[2-(2-Amino-ethoxy)-ethoxy]-acetyl)2-(γGlu)-CO—(CH2)18—CO2H)AQ-Aib-TFIEYLIEGGPSSGAPPPS-NH2 (YXEGTXTSDYSIXLDKKAQXTFIEYLIEGGPSSGAPPPS; Aib, αMeF, αMeL; acylated lysine C20 diacid; amide; (2)..(2) Xaa at position 2 is Aib; (6)..(6) Xaa at position 6 is alpha-methyl-Phe; (13)..(13) Xaa at position 13 is alpha-methyl-Leu; MOD_RES (17)..(17) Lys at position 17 is chemically modified by conjugation of the epsilon-amino group of the Lys side chain with (2-[2-(2-amino-ethoxy)-ethoxy]-acetyl)2-(gamma-Glu)-CO-(CH2)18- CO2H; (20)..(20) Xaa at position 20 is Aib; MOD_RES (39)..(39) Ser at po) [Peptide 139]	3.19
Y-Aib-EGT-αMeF-TSDYSI-αMeL-LDKK((2-[2-(2-Amino-ethoxy)-ethoxy]-acetyl)2-(γGlu)-CO—(CH2)18—CO2H)AQH-Aib-FIEYLIEGGPSSGAPPPS-NH2 (YXEGTXTSDYSIXLDKKAQHXFIEYLIEGGPSSGAPPPS; Aib, αMeF, αMeL; acylated lysine C20 diacid; amide; (2)..(2) Xaa at position 2 is Aib; (6)..(6) Xaa at position 6 is alpha-methyl-Phe; (13)..(13) Xaa at position 13 is alpha-methyl-Leu; MOD_RES (17)..(17) Lys at position 17 is chemically modified by conjugation of the epsilon-amino group of the Lys side chain with (2-[2-(2-amino-ethoxy)-ethoxy]-acetyl)2-(gamma-Glu)-CO-(CH2)18- CO2H; (21)..(21) Xaa at position 21 is Aib; MOD_RES (39)..(39) Ser at po) [Peptide 144]	4.23
Y-Aib-EGT-αMeF-TSDYSI-αMeL-LDSK((2-[2-(2-Amino-ethoxy)-ethoxy]-acetyl)2-(γGlu)-CO—(CH2)18—CO2H)AQ-Aib-AFIEYLIEGGPSSG-NH2 [Peptide 99]	3.61
Y-Aib-EGT-αMeF-TSDYSILLDKIAQ-Aib-AFIEYLIK((2-[2-(2-Amino-ethoxy)-ethoxy]-acetyl)2-(γGlu)-CO—(CH2)18—CO2H)GG-NH2 (YXEGTXTSDYSILLDKIAQXAFIEYLIKGG; Aib, αMeF; K lipidated C20 diacid-γGlu-AEEA2; C-terminal amide; (2)..(2) Xaa at position 2 is Aib; (6)..(6) Xaa at position 6 is alpha-methyl-Phe; (20)..(20) Xaa at position 20 is Aib; MOD_RES (28)..(28) Lys at position 28 is chemically modified by conjugation of the epsilon-amino group of the Lys side chain with (2-[2-(2-amino-ethoxy)-ethoxy]-acetyl)2-(gamma-Glu)-CO-(CH2)18- CO2H; MOD_RES (30)..(30) Gly at position 30 is amidated) [Peptide 95]	2.52
Y-Aib-EGT-αMeF-TSDYSILLDKK((2-[2-(2-Amino-ethoxy)-ethoxy]-acetyl)2-(γGlu)-CO—(CH2)18—CO2H)AQ-Aib-AFIEYLIEGGPSSG-NH2 [Peptide 98]	6.33
Y-Aib-EGTFTSDY-(D-Ser)-ILLDKK((2-[2-(2-Amino-ethoxy)-ethoxy]-acetyl)2-(γGlu)-CO—(CH2)18—CO2H)AQ-Aib-AFIEYLIEGGPSSGAPPPS-NH2 (YXEGTFTSDYXILLDKKAQXAFIEYLIEGGPSSGAPPPS; Aib, D-Ser, lipidated Lys, C-terminal amide; (2)..(2) Xaa at position 2 is Aib; (11)..(11) Xaa at position 11 is D-Ser; MOD_RES (17)..(17) Lys at position 17 is chemically modified by conjugation of the epsilon-amino group of the Lys side chain with (2-[2-(2-amino-ethoxy)-ethoxy]-acetyl)2-(gamma-Glu)-CO-(CH2)18- CO2H; (20)..(20) Xaa at position 20 is Aib; MOD_RES (39)..(39) Ser at position 39 is amidated) [Peptide 81]	5.92
Y-Aib-EGTFTSDY-aMeS-ILLDKK((2-[2-(2-Amino-ethoxy)-ethoxy]-acetyl)2-(γGlu)-CO—(CH2)18—CO2H)AQ-Aib-AFIEYLIEGGPSSGAPPPS-NH2 (YXEGTFTSDYXILLDKKAQXAFIEYLIEGGPSSGAPPPS; Aib, αMeS, lipidated Lys, C-terminal amide; (2)..(2) Xaa at position 2 is Aib; (11)..(11) Xaa at position 11 is alpha-methyl-Ser; MOD_RES (17)..(17) Lys at position 17 is chemically modified by conjugation of the epsilon-amino group of the Lys side chain with (2-[2-(2-amino-ethoxy)-ethoxy]-acetyl)2-(gamma-Glu)-CO-(CH2)18- CO2H; (20)..(20) Xaa at position 20 is Aib; MOD_RES (39)..(39) Ser at position 39 is amidated) [Peptide 68]	4.72
Y-Aib-EGTFTSDYSI-αMeL-LD-Aib-K((2-[2-(2-Amino-ethoxy)-ethoxy]-acetyl)2-(γGlu)-CO—(CH2)18—CO2H)AQ-Aib-AFIEYLIEGGPSSGAPPPS-NH2 (YXEGTFTSDYSIXLDXKAQXAFIEYLIEGGPSSGAPPPS; Aib, αMeL, lipidated Lys, C-terminal amide; (2)..(2) Xaa at position 2 is Aib; (13)..(13) Xaa at position 13 is alpha-methyl-Leu; (16)..(16) Xaa at position 16 is Aib; MOD_RES (17)..(17) Lys at position 17 is chemically modified by conjugation of the epsilon-amino group of the Lys side chain with (2-[2-(2-amino-ethoxy)-ethoxy]-acetyl)2-(gamma-Glu)-CO-(CH2)18- CO2H; (20)..(20) Xaa at position 20 is Aib; MOD_RES (39)..(39) Ser at position 39) [Peptide 60]	4.47
Y-Aib-EGTFTSDYSI-αMeL-LDEK((2-[2-(2-Amino-ethoxy)-ethoxy]-acetyl)2-(γGlu)-CO—(CH2)18—CO2H)AQ-Aib-AFIEYLIEGG-NH2 (YXEGTFTSDYSIXLDEKAQXAFIEYLIEGG; Aib, αMeL; K lipidated C20 diacid-γGlu-AEEA2; C-terminal amide; (2)..(2) Xaa at position 2 is Aib; (13)..(13) Xaa at position 13 is alpha-methyl-Leu; MOD_RES (17)..(17) Lys at position 17 is chemically modified by conjugation of the epsilon-amino group of the Lys side chain with (2-[2-(2-amino-ethoxy)-ethoxy]-acetyl)2-(gamma-Glu)-CO-(CH2)18- CO2H; (20)..(20) Xaa at position 20 is Aib; MOD_RES (30)..(30) Gly at position 30 is amidated) [Peptide 63]	4.09
